Fewer inactive variants are shown than the library holds.
What was measured:
biotinyl-Met-oxazolone = assay: self-aminoacylation, catalytic enhancement (BMO) (fold over background); higher = more active; k-Seq, kA / k0A0; sequences stand for … in GGGAAUGGAUCCACAUCUACGAAUUC…UUCACUGCAGACUUGACGAAGCUG
Method in brief: (§1)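 Mutagenized RNA pools with a 21-nt variable region (0.43 μM) were reacted with each biotinyl-aminoacyl-oxazolone at 2–1250 μM for 90 minutes at room temperature, in 50 μL HEPES/NaCl/KCl/MgCl2/CaCl2 buffer containing 5% acetonitrile at pH 6.9–7.0. RNA captured on streptavidin was quantified by triplicate qPCR and by Illumina sequencing. The fraction reacted for each sequence was fit to a pseudo-first-order model with bootstrapping, and catalytic enhancement is the median kA divided by the uncatalyzed rate, taken as the low-activity peak of a bimodal Gaussian fit.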

biotinyl-Trp-oxazolone = assay: self-aminoacylation, catalytic enhancement (BWO) (fold over background); higher = more active; k-Seq, kA / k0A0; sequences stand for … in GGGAAUGGAUCCACAUCUACGAAUUC…UUCACUGCAGACUUGACGAAGCUG
Method in brief: as §1

biotinyl-Leu-oxazolone = assay: self-aminoacylation, catalytic enhancement (BLO) (fold over background); higher = more active; k-Seq, kA / k0A0; sequences stand for … in GGGAAUGGAUCCACAUCUACGAAUUC…UUCACUGCAGACUUGACGAAGCUG
Method in brief: as §1

biotinyl-Ile-oxazolone = assay: self-aminoacylation, catalytic enhancement (BIO) (fold over background); higher = more active; k-Seq, kA / k0A0; sequences stand for … in GGGAAUGGAUCCACAUCUACGAAUUC…UUCACUGCAGACUUGACGAAGCUG
Method in brief: as §1

biotinyl-Phe-oxazolone = assay: self-aminoacylation, catalytic enhancement (BFO) (fold over background); higher = more active; k-Seq, kA / k0A0; sequences stand for … in GGGAAUGGAUCCACAUCUACGAAUUC…UUCACUGCAGACUUGACGAAGCUG
Method in brief: as §1

biotinyl-Val-oxazolone = assay: self-aminoacylation, catalytic enhancement (BVO) (fold over background); higher = more active; k-Seq, kA / k0A0; sequences stand for … in GGGAAUGGAUCCACAUCUACGAAUUC…UUCACUGCAGACUUGACGAAGCUG
Method in brief: as §1

Sequence | self-aminoacylation (biotinyl-Met-oxazolone) | self-aminoacylation (biotinyl-Trp-oxazolone) | self-aminoacylation (biotinyl-Leu-oxazolone) | self-aminoacylation (biotinyl-Ile-oxazolone) | self-aminoacylation (biotinyl-Phe-oxazolone) | self-aminoacylation (biotinyl-Val-oxazolone)
AUUACCGUGGUCAUCGAGUUA [Fam2.1 aminoacylation ribozyme variant] | 0.946 | 0.691 | 0.897 | 1.09 | 0.524 | 1.02
AUUACCGUGGUCAUCGGGUGA [Fam2.1 aminoacylation ribozyme variant] | 11.7 | 17.3 | 11.9 | 7.08 | 105 | 8.1
AUUACCGUGGUCUUCGAGUGA [Fam2.1 aminoacylation ribozyme variant] | 5.14 | 6.36 | 5.05 | 2.96 | 27 | 3.21
AUUACCGUUGUCAUCGAGUGA [Fam2.1 aminoacylation ribozyme variant] | 7.75 | 9.94 | 8.01 | 4.49 | 40.2 | 4.16
AUUACCUUGAUCAUCGAGUGA [Fam2.1 aminoacylation ribozyme variant] | 8.63 | 10.7 | 8.21 | 3.94 | 37.6 | 4.44
AUUACCUUGCUCAUCGAGUGA [Fam2.1 aminoacylation ribozyme variant] | 2.29 | 3.02 | 2.31 | 1.68 | 4.55 | 1.82
AUUACCUUGGUAAUCGAGUGA [Fam2.1 aminoacylation ribozyme variant] | 7.66 | 8.42 | 8.08 | 3.52 | 40 | 3.87
AUUACCUUGGUCAACGAGUGA [Fam2.1 aminoacylation ribozyme variant] | 6.26 | 6.5 | 6 | 3.57 | 17.5 | 3.54
AUUACCUUGGUCACCGAGUGA [Fam2.1 aminoacylation ribozyme variant] | 6.15 | 6.72 | 6.74 | 2.87 | 23.4 | 3.11
AUUACCUUGGUCAGCGAGUGA [Fam2.1 aminoacylation ribozyme variant] | 5.05 | 6.84 | 5.38 | 3.26 | 21.5 | 3.08
AUUACCUUGGUCAUCGAGAGA [Fam2.1 aminoacylation ribozyme variant] | 0.957 | 0.946 | 0.907 | 0.924 | 0.809 | 1.19
AUUACCUUGGUCAUCGCGUGA [Fam2.1 aminoacylation ribozyme variant] | 17.3 | 19.5 | 19.2 | 7.37 | 130 | 9.23
AUUACCUUGGUCAUCGGGUGA [Fam2.1 aminoacylation ribozyme variant] | 9.54 | 10.8 | 10.6 | 5.69 | 53.3 | 6.05
AUUACCUUGGUCUUCGAGUGA [Fam2.1 aminoacylation ribozyme variant] | 6.13 | 7.78 | 6.52 | 3.43 | 32.9 | 4.04
AUUACCUUGGUUAUCGAGUGA [Fam2.1 aminoacylation ribozyme variant] | 8.15 | 9.73 | 7.92 | 3.66 | 44.2 | 4.03
AUUACGCAGGUCAUCGAGUGA [Fam2.1 aminoacylation ribozyme variant] | 3.04 | 5.06 | 3.44 | 2.73 | 3.59 | 2.45
AUUACGCUAGUCAUCGAGUGA [Fam2.1 aminoacylation ribozyme variant] | 3.01 | 3.63 | 3.48 | 2.48 | 2.19 | 2.47
AUUACGCUGGUCAUCGACUGA [Fam2.1 aminoacylation ribozyme variant] | 0.889 | 1.65 | 1.73 | 1.48 | 0.691 | 1.24
AUUACGCUGGUCAUCGAGGGA [Fam2.1 aminoacylation ribozyme variant] | 1.46 | 2.25 | 1.98 | 1.61 | 1.38 | 2.03
AUUACGCUGGUCAUCGAGUCA [Fam2.1 aminoacylation ribozyme variant] | 1.15 | 0.981 | 1 | 1.15 | 0.768 | 1.23
AUUACGCUGGUCAUCGAGUGG [Fam2.1 aminoacylation ribozyme variant] | 2.06 | 1.73 | 1.87 | 1.46 | 1.66 | 1.45
AUUACGCUGGUUAUCGAGUGA [Fam2.1 aminoacylation ribozyme variant] | 5.92 | 6.53 | 5.48 | 3.22 | 27.5 | 3.68
AUUACGCUUGUCAUCGAGUGA [Fam2.1 aminoacylation ribozyme variant] | 3.16 | 4.03 | 3.93 | 2.6 | 4.09 | 2.36
AUUACUCUAGUCAUCGAGUGA [Fam2.1 aminoacylation ribozyme variant] | 5.28 | 6.32 | 5.41 | 2.95 | 19.1 | 2.9
AUUACUCUGGUCAACGAGUGA [Fam2.1 aminoacylation ribozyme variant] | 5 | 7.22 | 5.72 | 3.12 | 26.9 | 2.76
AUUACUCUGGUCAUCGAGUGA [Fam2.1 aminoacylation ribozyme variant] | 6.63 | 7.48 | 6.98 | 3.77 | 6.25 | 3.78

Sequence | self-aminoacylation (biotinyl-Met-oxazolone) | self-aminoacylation (biotinyl-Trp-oxazolone) | self-aminoacylation (biotinyl-Leu-oxazolone) | self-aminoacylation (biotinyl-Ile-oxazolone) | self-aminoacylation (biotinyl-Phe-oxazolone) | self-aminoacylation (biotinyl-Val-oxazolone)
AUUACUCUGGUCAUCGAGUGU [Fam2.1 aminoacylation ribozyme variant] | 4.24 | 3.92 | 4.37 | 2.52 | 4.35 | 2.57
AUUACUCUGGUCAUCGGGUGA [Fam2.1 aminoacylation ribozyme variant] | 10.1 | 12.2 | 11.8 | 5.43 | 39.7 | 6.05
AUUACUCUGGUCAUGGAGUGA [Fam2.1 aminoacylation ribozyme variant] | 3.28 | 3.35 | 3.98 | 2.42 | 3.58 | 2.05
AUUACUCUGGUCCUCGAGUGA [Fam2.1 aminoacylation ribozyme variant] | 3.62 | 4.62 | 4.34 | 2.31 | 18.2 | 2.01
AUUACUCUGGUCUUCGAGUGA [Fam2.1 aminoacylation ribozyme variant] | 5.11 | 7.1 | 5.04 | 3.13 | 21.2 | 2.85
AUUAGCCAGGUCAUCGAGUGA [Fam2.1 aminoacylation ribozyme variant] | 5.35 | 6.91 | 5.48 | 3.72 | 19.1 | 3.8
AUUAGCCUGGGCAUCGAGUGA [Fam2.1 aminoacylation ribozyme variant] | 6.92 | 7.8 | 8.51 | 3.66 | 57.8 | 3.8
AUUAGCCUGGUCAUAGAGUGA [Fam2.1 aminoacylation ribozyme variant] | 4.83 | 7.07 | 5.43 | 2.96 | 18.4 | 3.18
AUUAGCCUGGUCAUCAAGUGA [Fam2.1 aminoacylation ribozyme variant] | 4.31 | 4.94 | 4.41 | 2.74 | 17.9 | 2.45
AUUAGCCUGGUCAUCGGGUGA [Fam2.1 aminoacylation ribozyme variant] | 10.1 | 13.4 | 13.3 | 6.74 | 94.3 | 7.06
AUUAGCCUGGUCAUCGUGUGA [Fam2.1 aminoacylation ribozyme variant] | 3.38 | 4.27 | 3.17 | 1.96 | 21.6 | 2.07
AUUAGGCUGGUCAUCGAGUGA [Fam2.1 aminoacylation ribozyme variant] | 3.01 | 4.23 | 2.85 | 2.53 | 8.97 | 2.48
AUUAUACUGGUCAUCGAGUGA [Fam2.1 aminoacylation ribozyme variant] | 4.91 | 5.99 | 5.28 | 2.91 | 6.45 | 2.56
AUUAUCCUGGACAUCGAGUGA [Fam2.1 aminoacylation ribozyme variant] | 6.78 | 8.19 | 6.24 | 2.88 | 34.7 | 3.06
AUUAUCCUGGUCAUCCAGUGA [Fam2.1 aminoacylation ribozyme variant] | 3.69 | 4.26 | 4.27 | 2.14 | 11.1 | 2.28
AUUAUCCUGGUCAUCGAGCGA [Fam2.1 aminoacylation ribozyme variant] | 1.59 | 1.46 | 1.83 | 1.77 | 1.01 | 1.41
AUUAUCCUGGUCAUCGAGUGA [Fam2.1 aminoacylation ribozyme variant] | 13 | 14.5 | 13.5 | 6.23 | 20.7 | 6.5
AUUAUCCUGGUCAUCGAGUGC [Fam2.1 aminoacylation ribozyme variant] | 1.77 | 0.981 | 2.16 | 1.29 | 1.72 | 1.25
AUUAUCCUGGUCAUCGGGUGA [Fam2.1 aminoacylation ribozyme variant] | 14.1 | 17.4 | 17.1 | 7.1 | 69.6 | 7.7
AUUAUCCUGGUCAUCUAGUGA [Fam2.1 aminoacylation ribozyme variant] | 10.6 | 13.2 | 10.8 | 4.87 | 77.8 | 4.98
AUUAUCCUGGUCAUUGAGUGA [Fam2.1 aminoacylation ribozyme variant] | 11.7 | 13.9 | 11.7 | 5.33 | 67.5 | 5.05
AUUAUCCUGGUGAUCGAGUGA [Fam2.1 aminoacylation ribozyme variant] | 7.34 | 9.06 | 7.98 | 3.55 | 45.5 | 3.46
AUUAUCGUGGUCAUCGAGUGA [Fam2.1 aminoacylation ribozyme variant] | 4.44 | 5.66 | 4.54 | 2.83 | 27.7 | 3.25
AUUAUCUUGGUCAUCGAGUGA [Fam2.1 aminoacylation ribozyme variant] | 5.16 | 6.57 | 5.73 | 3.54 | 12.4 | 3.11
AUUAUUCUGGUCAUCGAGUGA [Fam2.1 aminoacylation ribozyme variant] | 5.31 | 7.13 | 6.25 | 3.4 | 22.9 | 3.12

From the supplement of paper PMC9233669
